From patent US6696409 (PRINCE OF WALES MEDICAL RESEARCH INSTITUTE LIMITED POWMR, dated 2004) come the findings set out here.

The chains are these.
T1: human neuropeptide Y Y2 receptor on SMS-MSN cells (human, UniProt P49146 1-381)
T1 construct: whole, on cells; also called NPY Y2 receptor; SMS-MSN (Y2)
T1 sequence (looked up): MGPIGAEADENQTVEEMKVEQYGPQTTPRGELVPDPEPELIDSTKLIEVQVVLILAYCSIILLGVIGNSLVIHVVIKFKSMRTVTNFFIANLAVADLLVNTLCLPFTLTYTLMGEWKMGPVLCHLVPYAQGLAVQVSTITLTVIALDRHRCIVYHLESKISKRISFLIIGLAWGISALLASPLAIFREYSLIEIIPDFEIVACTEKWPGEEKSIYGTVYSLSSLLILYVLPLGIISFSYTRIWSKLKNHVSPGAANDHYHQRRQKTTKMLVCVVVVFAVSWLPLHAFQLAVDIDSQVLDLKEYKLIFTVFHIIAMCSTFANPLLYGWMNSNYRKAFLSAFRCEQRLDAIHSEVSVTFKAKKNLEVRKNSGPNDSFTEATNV

T2: human neuropeptide Y Y1 receptor on SK-N-MC cells (human, UniProt P25929 1-384)
T2 construct: whole, on cells; also called NPY Y1 receptor; SK-N-MC (Y1)
T2 sequence (looked up): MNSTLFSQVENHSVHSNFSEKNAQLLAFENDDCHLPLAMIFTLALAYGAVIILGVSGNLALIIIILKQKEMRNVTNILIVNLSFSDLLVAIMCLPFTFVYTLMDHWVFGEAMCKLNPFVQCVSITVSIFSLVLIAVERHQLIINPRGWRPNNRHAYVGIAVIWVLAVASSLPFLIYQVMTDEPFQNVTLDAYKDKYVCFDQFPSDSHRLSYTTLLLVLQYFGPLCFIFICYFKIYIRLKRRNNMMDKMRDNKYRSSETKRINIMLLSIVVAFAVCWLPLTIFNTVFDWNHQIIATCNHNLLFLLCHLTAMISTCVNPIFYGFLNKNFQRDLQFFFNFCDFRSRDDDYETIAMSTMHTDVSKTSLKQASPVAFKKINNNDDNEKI

B1: Ac[A26,27,L28,31]NPY24-36 (peptide)
peptide: Ac-LRAALNLLTRQRY-NH2
B2: AcNPY24-36 (peptide, UniProt P01303 52-64, looked up)
peptide: Ac-LRHYINLITRQRY-NH2
B3: Neuropeptide Y (ligand)
peptide: not shown
B4: Ac[L28,L31]NPY24-36 (peptide)
peptide: Ac-LRHYLNLLTRQRY-NH2
B5: Ac[A24,A27,L28,L31]NPY24-36 (peptide)
peptide: Ac-ARHALNLLTRQRY-NH2
notes: also called Ac[Ala24, Ala27, Leu28, Leu31]NPY(24-36)
B6: Ac[L28,A30,L31]NPY24-36 (peptide)
peptide: Ac-LRHYLNALTRQRY-NH2
B7: Ac[A27,L28,L31]NPY24-36 (peptide)
peptide: Ac-LRHALNLLTRQRY-NH2
B8: Ac[L28,A29,L31]NPY24-36 (peptide)
peptide: Ac-LRHYLALLTRQRY-NH2
B9: Ac[L28,L31,A32]NPY24-36 (peptide)
peptide: Ac-LRHYLNLLARQRY-NH2
B10: Ac[L28,A31]NPY24-36 (peptide)
peptide: Ac-LRHYLNLATRQRY-NH2
B11: Ac[A26,L28,L31]NPY24-36 (peptide)
peptide: Ac-LRAYLNLLTRQRY-NH2
B12: Ac[A24,L28,L31]NPY24-36 (peptide)
peptide: Ac-ARHYLNLLTRQRY-NH2
B13: Ac[A25,L28,L31]NPY24-36 (peptide)
peptide: Ac-LAHYLNLLTRQRY-NH2
B14: Ac[A25,R28,L31]NPY24-36 (peptide)
peptide: Ac-LAHYRNLLTRQRY-NH2
B15: Ac[A28,L31]NPY24-36 (peptide)
peptide: Ac-LRHYANLLTRQRY-NH2
B16: Ac[A24,26,27,30,31,L28]NPY24-36 (peptide)
peptide: Ac-ARAALNAATRQRY-NH2

The first assay deals with Y1 receptors in anaesthetised rats (rat). Nature of the assay: cell-based or functional assay.
Regarding B1, the “Increase in BP (rel to NPY), anaesthetised rats” value (shortened to “Increase in BP (rel to NPY)”) is 0 relative to NPY.
On the same count and under the same terms, the result for B2 reads 0 relative to NPY; that for B3, 1 relative to NPY.
Still for that read-out and setting: the result for B4 reads 0 relative to NPY; that for B5, 0 relative to NPY; that for B6, 0 relative to NPY.
With B7, the “Increase in BP (rel to NPY)” value is 0 relative to NPY.
Turning to B8, the “Increase in BP (rel to NPY)” value is 0 relative to NPY.
The same measure, in the same setting: the result for B9 reads 0 relative to NPY.
B10: the “Increase in BP (rel to NPY)” value is 0 relative to NPY.
With B11, the “Increase in BP (rel to NPY)” value was 0 relative to NPY.
On the same count and under the same terms, the result for B12 reads 0 relative to NPY; that for B13, 0 relative to NPY; that for B14, 0 relative to NPY.
The same measure, in the same setting: the result for B15 reads 0 relative to NPY; that for B16, 0 relative to NPY.

The target in the next assay is Y2-like receptors in anaesthetised rats (rat). Briefly: cell-based or functional assay.
As to B1, the “EC50 of the change in pulse interval (PI %), vagal stimulation in anaesthetised rats” value is 1 nmol.
Same read-out and setting: the result for B4 reads 3.16 nmol; that for B5, 0.89 nmol.
Still for that read-out and setting: for B6 the value was 0.39 nmol.
Regarding B7, the “EC50 of the change in pulse interval (PI %), vagal stimulation in anaesthetised rats” value turned out to be 0.52 nmol.
With B8, the “EC50 of the change in pulse interval (PI %), vagal stimulation in anaesthetised rats” value was 1.48 nmol.
In the case of B9, the “EC50 of the change in pulse interval (PI %), vagal stimulation in anaesthetised rats” value worked out at 6.46 nmol.
In the case of B10, the “EC50 of the change in pulse interval (PI %), vagal stimulation in anaesthetised rats” value was found to be 0.78 nmol.
Still for that read-out and setting: the result for B11 reads 1.26 nmol; that for B12, 0.46 nmol; that for B13, 1.58 nmol.
Still for that read-out and setting: the result for B14 reads 1.95 nmol; that for B15, 2.75 nmol.
Still for that read-out and setting: the result for B16 reads 0.56 nmol.

Another assay concerns the target T1, human neuropeptide Y Y2 receptor on …. Briefly: competition with 30 pM [125I]NPY on SMS-MSN cells (human Y2), filtration.
On to B5, for which the IC50 came out at 0.03 nM.
Still for that read-out and setting: the result for B6 reads 6.31 nM.
Take B7: the IC50 is 0.13 nM.
On the same count and under the same terms, the result for B8 reads 0.05 nM; that for B9, 2.51 nM.
On the same count and under the same terms, the result for B10 reads 0.06 nM.
In turn, B11 came in with an IC50 of 63.1 nM.
B12 came in with an IC50 of 19.2 nM.
On the same count and under the same terms, for B13 the value was 2 nM; for B14, 0.1 nM; for B15, 12.6 nM.
On the same count and under the same terms, for B16 the value was 3.16 nM.

In the next assay the target is T2, human neuropeptide Y Y1 receptor on …. Briefly: competition with 30 pM [125I]NPY on SK-N-MC cells (human Y1), filtration.
The molecule B14 showed an IC50 of 692 nM.
